Assay results taken from patent US9725702B2, “Laccase from ganoderma lucidum capable of enhancing enzymatic degradation of lignocellulolytic biomass” (DANMARKS TEKNISKE UNIVERSITET, priority 2012, dated 2017).

Test: Laccase-cellulase catalyzed hydrolysis of pretreated biomass, glucose release
Assay type: biochemical
Conditions: with cellulase 1 or 2, pH 5.1, 50° C., 30 hour
Method: FIG. 15. A graphical comparison of glucose released over time during hydrolysis of pre-treated wheaty straw at pH 5.1 and 50° C. by each of commercial enzyme preparations Cellulase 1 (CC2) [A]; or Cellulase 2 [B], either alone, or in combination with a laccase enzyme; the tested laccases being respectively LacGL1 and GLlac1 (LacJooSS; Q9HG17) derived from G. lucidum; and laccases derived from Agaricus bisporus (Sigma 40452), Pleurotus ostreatus (Sigma 75117) and, Trametes versicolor (Sigma 51639).
The commercial fungal laccases were purchased as lyophilized protein samples from Sigma Aldrich. A solution of each of the above 5 laccases was prepared in a citric buffer containing 20% of glycerol (pH 5.1, 100 mM).
Two different commercially available cellulase enzyme preparations used in the comparative study were “Cellulase 1” and “Cellulase 2”, which were tested in combination with each of the laccases listed above.
The three different types of pretreated biomass used in the comparative study were sugarcane bagasse, barley straw and wheat straw. The source and pre-treatment of the sugarcane bagasse by steam explosion was as set out in Example 9. […] The composition of the dry and the pretreated biomass were determined according to the US National Renewable Energy Laboratory (NREL) procedures (Sluiter et al, 2010).
The laccase-cellulase catalyzed hydrolysis of the pretreated biomass samples to release glucose was performed as follows: Hydrolysis of 5% (w/v) samples of pretreated sugarcane bagasse, barley straw, and wheat straw biomass were assayed using an Enzyme/Substrate (E/S) ratio of 0.064% w/w for laccases and of 0.4% w/w for each commercial cellulase preparation in each hydrolysis reaction. The E/S dosage was based on the total protein concentration used, as determined using Pierce BCA (BiCinchoninic Acid) protein assay kit microplate procedure according to manufacturer's instruction (Thermo Fisher Scientific, Rockford, US). […]
Laccase and cellulase-mediated hydrolysis of the 3 biomass forms, measured as glucose release, are shown graphically in FIGS. 13, 14 and 15. […]

B1: LacGL1: Fungal laccase from Ganoderma lucidum CBS229.93 (SEQ ID NO: 5/9), recombinantly expressed in Pichia pastoris X-33 (protein, listed as Ganoderma lucidum)
chain: GIGPKTDLTISNADVAPDGYTRAAVVVNGVFPAPLITGNKGDRFQLNVIDQMTNHTMLKSTSIHWHGFFQKGTNWADGPAFINQCPISSGHSFLYDFQVPDQAGTFWYHSHLSTQYCDGLRGPFVVYDPKDPLKKLYDIDDDSTVITLTDWYHVAARLGPRFPLGSDSTLINGLGRSTTNVTADLAVINVTQGKRYRFRLVSLSCDPNYTFSIDDHNMTVIEADGIETQPVTVNAIQIFSAQRYSFVLTANQTIDNYWIRANPNFGNVGFTDGINSAILRYAGADPVEPTTSQQTTQNLLNEVDLHPFVPKRTPGQPTQGGVDTAINMVFNFNGSNFFINNASFVPPTVPVLLQILSGAQAAQDLLPSGSVYTLPVNKSIELTFPATANAPGAPHPFHLHGHAFAVVRSAGSTVYNYDNPVWRDVVSTGTPAAGDNVTIRFQTDNPGPWFLHCHIDFHLEAGFAVVFAEDPTDTSLANPVPKAWSDLCPTYDALSVDDQ
modifications: mat_peptide (1)..(499) Mature LacGL1 laccase (minus signal peptide)
  glucose release compared to GLlac1: the same
p<0.05
  glucose release compared to the other tested laccases: significantly enhanced
